The source of these data is PMC3269963 (Journal of Immunology (Baltimore, Md. : 1950), 2011).

The assay concerns the target recombinant His-tag PCNA (proliferating cell nuclear antigen) (human, UniProt P12004 1-261). Briefly: SPR. (In SPR one partner is held on a chip, and binding of the other changes the refractive index at the surface.)

Sequence of recombinant His-tag PCNA (proliferating cell nuclear antigen) (P12004 whole entry): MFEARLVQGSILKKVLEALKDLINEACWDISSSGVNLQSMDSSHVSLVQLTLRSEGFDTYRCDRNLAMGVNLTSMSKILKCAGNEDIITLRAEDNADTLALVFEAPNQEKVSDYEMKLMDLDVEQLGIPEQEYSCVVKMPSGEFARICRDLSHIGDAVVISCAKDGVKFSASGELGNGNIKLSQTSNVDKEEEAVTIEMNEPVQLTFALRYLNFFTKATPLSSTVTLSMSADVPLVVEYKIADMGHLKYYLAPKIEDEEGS

B1: NKp44-Ig (Fc fusion, UniProt O95944 22-192, looked up)
chain: QSKAQVLQSVAGQTLTVRCQYPPTGSLYEKKGWCKEASALVCIRLVTSSKPRTMAWTSRFTIWDDPDAGFFTVTMTDLREEDSGHYWCRIYRPSDNSVSKSVRFYLVVSPASASTQTSWTPRDLVSSQTQTQSCVPPTAGARQAPESPSTIPVPSQPQNSTLRPGPAAPIA
What is called Kd is the concentration at which binding is half-saturated. Take B1: the Kd came out at 3.4 nM.
